1 substance from publication PMC2877719 can be followed below.

The target in assay [1] is full-length hEAG1 labeled with Cerulean (human) (UniProt O95259). The assay can be described thus: FRET or BRET; acceptor photobleaching FRET in co-transfected HEK-293 cells; Cerulean on hEAG1 (donor), YFP on CaM (acceptor); 1 uM ionomycin in Ringer solution with 1.8 mM CaCl2 (+Ca2+), 10 min at 37 C, then fixed with 4% formaldehyde.
The target in assay [2] is C-terminus of hEAG1 (M478-S962) labeled with Cerulean (human) (UniProt O95259). The assay is described as above.
The target in assay [3] is full-length hEAG1 mutated in BD-N (F151S, A152S) labeled with Cerulean (human) (UniProt O95259). Described as above.
In assay [4] the target is full-length hEAG1 with mutated BD-C2 (F714S, F717S) labeled with Cerulean (human) (UniProt O95259). The assay is described as above.
Assay [5] concerns the target full-length hEAG1 labeled with Cerulean (human) (UniProt O95259). The assay can be described thus: FRET or BRET; acceptor photobleaching FRET in co-transfected HEK-293 cells; Cerulean on hEAG1 (donor), YFP on CaM (acceptor); 1 uM ionomycin in Ca2+- and Mg2+-free Ringer solution with 1 mM EGTA (-Ca2+), 10 min at 37 C, then fixed with 4% formaldehyde.
Assay [6] has as its target full-length hEAG1 with mutated BD-C2 (F714S, F717S) labeled with Cerulean (human) (UniProt O95259). The assay is described as above.

Chain of full-length hEAG1 labeled with Cerulean (human) (O95259 other isoform, or with tags, fused parts or gaps): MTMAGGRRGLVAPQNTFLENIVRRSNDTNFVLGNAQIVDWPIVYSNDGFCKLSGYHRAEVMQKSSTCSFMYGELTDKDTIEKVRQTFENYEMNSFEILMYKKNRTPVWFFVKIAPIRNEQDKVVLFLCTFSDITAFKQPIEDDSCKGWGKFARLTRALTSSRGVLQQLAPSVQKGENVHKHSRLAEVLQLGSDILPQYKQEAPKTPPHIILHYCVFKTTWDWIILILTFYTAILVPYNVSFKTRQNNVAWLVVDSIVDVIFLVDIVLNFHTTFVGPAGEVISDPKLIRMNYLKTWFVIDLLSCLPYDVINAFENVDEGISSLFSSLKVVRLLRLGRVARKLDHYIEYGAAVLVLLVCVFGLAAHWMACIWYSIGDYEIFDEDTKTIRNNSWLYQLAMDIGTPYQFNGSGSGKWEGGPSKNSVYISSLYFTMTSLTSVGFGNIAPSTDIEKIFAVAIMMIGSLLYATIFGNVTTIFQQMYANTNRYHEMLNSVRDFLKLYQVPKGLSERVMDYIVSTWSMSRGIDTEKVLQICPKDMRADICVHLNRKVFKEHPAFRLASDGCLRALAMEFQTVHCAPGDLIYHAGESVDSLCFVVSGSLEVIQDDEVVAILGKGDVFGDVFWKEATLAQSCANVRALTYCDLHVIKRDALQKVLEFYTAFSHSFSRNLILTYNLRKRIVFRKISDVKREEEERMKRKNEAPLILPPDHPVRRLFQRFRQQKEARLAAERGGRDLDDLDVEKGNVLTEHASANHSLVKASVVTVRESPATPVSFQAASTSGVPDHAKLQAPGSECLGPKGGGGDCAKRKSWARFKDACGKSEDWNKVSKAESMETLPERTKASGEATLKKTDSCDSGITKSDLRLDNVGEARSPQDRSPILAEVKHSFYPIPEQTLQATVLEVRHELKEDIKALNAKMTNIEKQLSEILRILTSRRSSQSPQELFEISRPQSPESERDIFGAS
Chain of full-length hEAG1 with mutated BD-C2 (F714S, F717S) labeled with Cerulean (human) (O95259 other isoform, or with tags, fused parts or gaps F714S | F717S | F714S F717S): as the sequence (O95259 other isoform, or with tags, fused parts or gaps) above, with F714S, F717S counted along it
Chain of C-terminus of hEAG1 (M478-S962) labeled with Cerulean (human) (O95259 505-989): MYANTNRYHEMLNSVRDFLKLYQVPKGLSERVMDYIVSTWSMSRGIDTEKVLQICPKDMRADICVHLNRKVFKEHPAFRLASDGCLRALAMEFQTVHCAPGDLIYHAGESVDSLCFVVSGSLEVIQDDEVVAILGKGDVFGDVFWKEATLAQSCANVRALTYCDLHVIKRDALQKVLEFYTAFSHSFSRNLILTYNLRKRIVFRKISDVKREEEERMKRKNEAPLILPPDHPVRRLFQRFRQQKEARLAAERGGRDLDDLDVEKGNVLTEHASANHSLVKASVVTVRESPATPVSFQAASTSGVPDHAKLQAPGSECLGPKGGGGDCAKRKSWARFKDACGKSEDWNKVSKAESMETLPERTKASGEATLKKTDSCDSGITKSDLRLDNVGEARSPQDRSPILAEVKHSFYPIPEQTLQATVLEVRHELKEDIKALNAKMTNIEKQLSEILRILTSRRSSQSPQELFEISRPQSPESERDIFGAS
Chain of full-length hEAG1 mutated in BD-N (F151S, A152S) labeled with Cerulean (human) (O95259 other isoform, or with tags, fused parts or gaps F151S | A152S | F151S A152S): as the sequence (O95259 other isoform, or with tags, fused parts or gaps) above, with F151S, A152S counted along it

For “N-terminally YFP-labeled calmodulin (rat calmodulin II) (from UniProt P0DP30 1-149) (natural protein)”, the FRET efficiency in assay [1] was found to be 17%; in assay [3] it was 9.8%; in assay [4], 8.7%; in assay [5], 10.1%; in assay [6], 11.5%. For the same substance, in assay [2], the mean FRET efficiency was 9.5%.
